{"source": "the supplement of paper PMC9112550", "about": "“Optimization of the antimicrobial peptide Bac7 by deep mutational scanning” (BMC Biology, 2022);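 also: peptides expressed intracellularly from a pBAD plasmid library in pooled LB shake-flask culture, induced with 0.3% L-arabinose, DNA abundance read by NGS, three biological replicates, DESeq2 with apeglm shrinkage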"}
{"tested_on": "Escherichia coli TOP10", "test": "shrunken log2 fold change of peptide-encoding DNA abundance (4.5 h post-induction vs induction); higher = less antimicrobial activity (less host growth inhibition)", "conditions": "time post-induction: 4.5 h; library: site-saturation at positions 5, 18, 19, 20"}
{"sequence": "RRIRYRPPRLPRPRPRPWCWPRP", "shrunken log2 fold change": -0.153}
{"sequence": "RRIRMRPPRLPRPRPRPPHHPRP", "shrunken log2 fold change": 0.527}
{"sequence": "RRIRDRPPRLPRPRPRPGDEPRP", "shrunken log2 fold change": 0.0587}
{"sequence": "RRIRMRPPRLPRPRPRPGQAPRP", "shrunken log2 fold change": 0.34}
{"sequence": "RRIRKRPPRLPRPRPRPKGYPRP", "shrunken log2 fold change": -0.00627}
{"sequence": "RRIRTRPPRLPRPRPRPWPMPRP", "shrunken log2 fold change": 0.44}
{"sequence": "RRIRIRPPRLPRPRPRPRCAPRP", "shrunken log2 fold change": 0.204}
{"sequence": "RRIRNRPPRLPRPRPRPPMGPRP", "shrunken log2 fold change": -0.0346}
{"sequence": "RRIRRRPPRLPRPRPRPVEPPRP", "shrunken log2 fold change": -0.0837}
{"sequence": "RRIRYRPPRLPRPRPRPRGNPRP", "shrunken log2 fold change": -0.0138}
{"sequence": "RRIRWRPPRLPRPRPRPAIRPRP", "shrunken log2 fold change": 0.639}
{"sequence": "RRIRFRPPRLPRPRPRPIICPRP", "shrunken log2 fold change": 0.12}
{"sequence": "RRIRERPPRLPRPRPRPVYAPRP", "shrunken log2 fold change": -0.288}
{"sequence": "RRIRNRPPRLPRPRPRPEMSPRP", "shrunken log2 fold change": -0.0389}
{"sequence": "RRIRRRPPRLPRPRPRPRPSPRP", "shrunken log2 fold change": 0.781}
{"sequence": "RRIRRRPPRLPRPRPRPECNPRP", "shrunken log2 fold change": 0.791}
{"sequence": "RRIRSRPPRLPRPRPRPMRFPRP", "shrunken log2 fold change": 0.378}
{"sequence": "RRIRRRPPRLPRPRPRPGVYPRP", "shrunken log2 fold change": -0.0241}
{"sequence": "RRIRIRPPRLPRPRPRPAELPRP", "shrunken log2 fold change": -0.0331}
{"sequence": "RRIRSRPPRLPRPRPRPSWMPRP", "shrunken log2 fold change": -0.0505}
{"sequence": "RRIRVRPPRLPRPRPRPLYFPRP", "shrunken log2 fold change": -0.53}
{"sequence": "RRIRFRPPRLPRPRPRPDCHPRP", "shrunken log2 fold change": -0.0405}
{"sequence": "RRIRCRPPRLPRPRPRPFLIPRP", "shrunken log2 fold change": -0.36}
{"sequence": "RRIRVRPPRLPRPRPRPYVDPRP", "shrunken log2 fold change": -0.0757}
{"sequence": "RRIRERPPRLPRPRPRPPETPRP", "shrunken log2 fold change": -0.0785}
{"sequence": "RRIRPRPPRLPRPRPRPCNNPRP", "shrunken log2 fold change": -0.177}
{"sequence": "RRIRYRPPRLPRPRPRPHQGPRP", "shrunken log2 fold change": -0.142}
{"sequence": "RRIRVRPPRLPRPRPRPHFCPRP", "shrunken log2 fold change": -0.0628}
{"sequence": "RRIRGRPPRLPRPRPRPPMYPRP", "shrunken log2 fold change": 0.145}
{"sequence": "RRIRGRPPRLPRPRPRPYWCPRP", "shrunken log2 fold change": -0.0844}
{"sequence": "RRIRHRPPRLPRPRPRPVDCPRP", "shrunken log2 fold change": -0.0119}
{"sequence": "RRIRGRPPRLPRPRPRPCAGPRP", "shrunken log2 fold change": 0.834}
{"sequence": "RRIRKRPPRLPRPRPRPGADPRP", "shrunken log2 fold change": 0.709}
{"sequence": "RRIRYRPPRLPRPRPRPMHGPRP", "shrunken log2 fold change": 0.00652}
{"sequence": "RRIRPRPPRLPRPRPRPDGEPRP", "shrunken log2 fold change": 0.0766}
{"sequence": "RRIRWRPPRLPRPRPRPYDSPRP", "shrunken log2 fold change": -0.377}
{"sequence": "RRIRERPPRLPRPRPRPTHCPRP", "shrunken log2 fold change": -0.115}
{"sequence": "RRIRQRPPRLPRPRPRPWFKPRP", "shrunken log2 fold change": -0.183}
{"sequence": "RRIRYRPPRLPRPRPRPKHRPRP", "shrunken log2 fold change": 0.0727}
{"sequence": "RRIRKRPPRLPRPRPRPPHYPRP", "shrunken log2 fold change": 0.176}
{"sequence": "RRIRSRPPRLPRPRPRPMVHPRP", "shrunken log2 fold change": -0.026}
{"sequence": "RRIRKRPPRLPRPRPRPTVHPRP", "shrunken log2 fold change": 0.467}
{"sequence": "RRIRWRPPRLPRPRPRPQQHPRP", "shrunken log2 fold change": -0.056}
{"sequence": "RRIRNRPPRLPRPRPRPGKFPRP", "shrunken log2 fold change": -0.034}
{"sequence": "RRIRERPPRLPRPRPRPIYAPRP", "shrunken log2 fold change": -0.086}
{"sequence": "RRIRWRPPRLPRPRPRPAYQPRP", "shrunken log2 fold change": 0.106}
{"sequence": "RRIRYRPPRLPRPRPRPVNSPRP", "shrunken log2 fold change": -0.0185}
{"sequence": "RRIRVRPPRLPRPRPRPMPWPRP", "shrunken log2 fold change": 0.056}
{"sequence": "RRIRWRPPRLPRPRPRPDALPRP", "shrunken log2 fold change": 0.63}
{"sequence": "RRIRARPPRLPRPRPRPWIMPRP", "shrunken log2 fold change": -0.332}
{"sequence": "RRIRHRPPRLPRPRPRPFLIPRP", "shrunken log2 fold change": -0.687}
{"sequence": "RRIRERPPRLPRPRPRPRCIPRP", "shrunken log2 fold change": -0.425}
{"sequence": "RRIRMRPPRLPRPRPRPLARPRP", "shrunken log2 fold change": 0.659}
{"sequence": "RRIRHRPPRLPRPRPRPDNQPRP", "shrunken log2 fold change": -0.0673}
{"sequence": "RRIRYRPPRLPRPRPRPFYFPRP", "shrunken log2 fold change": -0.961}
{"sequence": "RRIRNRPPRLPRPRPRPHRHPRP", "shrunken log2 fold change": -0.222}
{"sequence": "RRIRSRPPRLPRPRPRPDVFPRP", "shrunken log2 fold change": -0.098}
{"sequence": "RRIRNRPPRLPRPRPRPCRAPRP", "shrunken log2 fold change": -0.0439}
{"sequence": "RRIRARPPRLPRPRPRPKQGPRP", "shrunken log2 fold change": 0.373}
{"sequence": "RRIRMRPPRLPRPRPRPHICPRP", "shrunken log2 fold change": -0.0377}
{"sequence": "RRIRPRPPRLPRPRPRPNNVPRP", "shrunken log2 fold change": -0.22}
{"sequence": "RRIRCRPPRLPRPRPRPGRCPRP", "shrunken log2 fold change": 0.436}
{"sequence": "RRIRSRPPRLPRPRPRPIMIPRP", "shrunken log2 fold change": -0.426}
{"sequence": "RRIRSRPPRLPRPRPRPKHEPRP", "shrunken log2 fold change": 0.076}
{"sequence": "RRIRDRPPRLPRPRPRPFEFPRP", "shrunken log2 fold change": 0.0215}
{"sequence": "RRIRERPPRLPRPRPRPWRGPRP", "shrunken log2 fold change": 0.166}
{"sequence": "RRIRVRPPRLPRPRPRPFWNPRP", "shrunken log2 fold change": -0.00518}
{"sequence": "RRIRGRPPRLPRPRPRPNIDPRP", "shrunken log2 fold change": 0.644}
{"sequence": "RRIRFRPPRLPRPRPRPYGKPRP", "shrunken log2 fold change": -0.514}
{"sequence": "RRIRDRPPRLPRPRPRPCYIPRP", "shrunken log2 fold change": 0.0176}
{"sequence": "RRIRPRPPRLPRPRPRPTDYPRP", "shrunken log2 fold change": -0.132}
{"sequence": "RRIRARPPRLPRPRPRPQLNPRP", "shrunken log2 fold change": -0.0125}
{"sequence": "RRIRARPPRLPRPRPRPFPYPRP", "shrunken log2 fold change": -0.164}
{"sequence": "RRIRFRPPRLPRPRPRPNSDPRP", "shrunken log2 fold change": -0.209}
{"sequence": "RRIRNRPPRLPRPRPRPRSQPRP", "shrunken log2 fold change": -0.0986}
